Experimental data as given in patent publication US20150344570A1 (published 2015).

B1: GpH7-A5/GpH7-B3 variant K334_08L/GpL16-k0 (antibody, human IgG1, kappa)
heavy 1: not shown
heavy 2: not shown
light: DIVMTQSPLSLPVTPGEPASISCQASESLVHSNRNTYLHWYLQKPGQSPQLLIYKVSNRFSGVPDRFSGSGSGTDFTLKISRVEAEDVGVYYCSQNTHVPPTFGQGTKVEIERTVAAPSVFIFPPSDEQLKSGTASVVCLLNNFYPREAKVQWKVDNALQSGNSQESVTEQDSKDSTYSLSSTLTLSKADYEKHKVYACEVTHQGLSSPVTKSFNRGEC
notes: Heterodimerized anti-glypican-3 IgG1; mutation in the GpH7-B3 chain only; also called He Ab
B2: GpH7-A5/GpH7-B3 variant S298_14T/GpL16-k0 (antibody, human IgG1, kappa)
heavy 1: not shown
heavy 2: not shown
light: B1 light
notes: as for B1
B3: GpH7-A5/GpH7-B3 variant P329_02A/GpL16-k0 (antibody, human IgG1, kappa)
heavy 1: not shown
heavy 2: not shown
light: B1 light
notes: as for B1
B4: GpH7-A5/GpH7-B3 variant Y300_07I/GpL16-k0 (antibody, human IgG1, kappa)
heavy 1: not shown
heavy 2: not shown
light: B1 light
notes: as for B1
B5: GpH7-A5/GpH7-B3 variant S324_10E/GpL16-k0 (antibody, human IgG1, kappa)
heavy 1: not shown
heavy 2: not shown
light: B1 light
notes: as for B1
B6: GpH7-A5/GpH7-B3 variant Q295_14T/GpL16-k0 (antibody, human IgG1, kappa)
heavy 1: not shown
heavy 2: not shown
light: B1 light
notes: as for B1
B7: GpH7-A5/GpH7-B3 variant K334_09D/GpL16-k0 (antibody, human IgG1, kappa)
heavy 1: not shown
heavy 2: not shown
light: B1 light
notes: as for B1
B8: GpH7-A5/GpH7-B3 variant S324_01G/GpL16-k0 (antibody, human IgG1, kappa)
heavy 1: not shown
heavy 2: not shown
light: B1 light
notes: as for B1
B9: GpH7-A5/GpH7-B3 variant Y300_08L/GpL16-k0 (antibody, human IgG1, kappa)
heavy 1: not shown
heavy 2: not shown
light: B1 light
notes: as for B1
B10: GpH7-A5/GpH7-B3 variant S298_04F/GpL16-k0 (antibody, human IgG1, kappa)
heavy 1: not shown
heavy 2: not shown
light: B1 light
notes: as for B1
B11: GpH7-A5/GpH7-B3 variant S324_16H/GpL16-k0 (antibody, human IgG1, kappa)
heavy 1: not shown
heavy 2: not shown
light: B1 light
notes: as for B1
B12: GpH7-A5/GpH7-B3 variant S298_15Y/GpL16-k0 (antibody, human IgG1, kappa)
heavy 1: not shown
heavy 2: not shown
light: B1 light
notes: as for B1
B13: GpH7-A5/GpH7-B3 variant Y300_01G/GpL16-k0 (antibody, human IgG1, kappa)
heavy 1: not shown
heavy 2: not shown
light: B1 light
notes: as for B1
B14: GpH7-A5/GpH7-B3 variant Y300_14T/GpL16-k0 (antibody, human IgG1, kappa)
heavy 1: not shown
heavy 2: not shown
light: B1 light
notes: as for B1
B15: GpH7-A5/GpH7-B3 variant S298_03V/GpL16-k0 (antibody, human IgG1, kappa)
heavy 1: not shown
heavy 2: not shown
light: B1 light
notes: as for B1
B16: GpH7-A5/GpH7-B3 variant Q295_13S/GpL16-k0 (antibody, human IgG1, kappa)
heavy 1: not shown
heavy 2: not shown
light: B1 light
notes: as for B1
B17: GpH7-A5/GpH7-B3 variant Q295_18N/GpL16-k0 (antibody, human IgG1, kappa)
heavy 1: not shown
heavy 2: not shown
light: B1 light
notes: as for B1
B18: GpH7-A5/GpH7-B3 variant S324_19Q/GpL16-k0 (antibody, human IgG1, kappa)
heavy 1: not shown
heavy 2: not shown
light: B1 light
notes: as for B1
B19: GpH7-A5/GpH7-B3 variant S298_16H/GpL16-k0 (antibody, human IgG1, kappa)
heavy 1: not shown
heavy 2: not shown
light: B1 light
notes: as for B1
B20: GpH7-A5/GpH7-B3 variant S324_12R/GpL16-k0 (antibody, human IgG1, kappa)
heavy 1: not shown
heavy 2: not shown
light: B1 light
notes: as for B1
B21: GpH7-A5/GpH7-B3 variant Y296_20W/GpL16-k0 (antibody, human IgG1, kappa)
heavy 1: not shown
heavy 2: not shown
light: B1 light
notes: as for B1
B22: GpH7-A5/GpH7-B3 variant Y300_13S/GpL16-k0 (antibody, human IgG1, kappa)
heavy 1: not shown
heavy 2: not shown
light: B1 light
notes: as for B1
B23: GpH7-A5/GpH7-B3 variant S298_09D/GpL16-k0 (antibody, human IgG1, kappa)
heavy 1: not shown
heavy 2: not shown
light: B1 light
notes: as for B1
B24: GpH7-A5/GpH7-B3 variant P329_11K/GpL16-k0 (antibody, human IgG1, kappa)
heavy 1: not shown
heavy 2: not shown
light: B1 light
notes: as for B1
B25: GpH7-A5/GpH7-B3 variant S298_07I/GpL16-k0 (antibody, human IgG1, kappa)
heavy 1: not shown
heavy 2: not shown
light: B1 light
notes: as for B1
B26: GpH7-A5/GpH7-B3 variant Q295_16H/GpL16-k0 (antibody, human IgG1, kappa)
heavy 1: not shown
heavy 2: not shown
light: B1 light
notes: as for B1
B27: GpH7-A5/GpH7-B3 variant S324_11K/GpL16-k0 (antibody, human IgG1, kappa)
heavy 1: not shown
heavy 2: not shown
light: B1 light
notes: as for B1
B28: GpH7-A5/GpH7-B3 variant P329_12R/GpL16-k0 (antibody, human IgG1, kappa)
heavy 1: not shown
heavy 2: not shown
light: B1 light
notes: as for B1
B29: GpH7-A5/GpH7-B3 variant S324_02A/GpL16-k0 (antibody, human IgG1, kappa)
heavy 1: not shown
heavy 2: not shown
light: B1 light
notes: as for B1

Target: T1, FcγRIIIa extracellular domain with C-terminal His tag (human, UniProt P08637 17-208)
T1 construct: extracellular domain; also called FcgRIIIa; 3a
T1 sequence (P08637 17-208): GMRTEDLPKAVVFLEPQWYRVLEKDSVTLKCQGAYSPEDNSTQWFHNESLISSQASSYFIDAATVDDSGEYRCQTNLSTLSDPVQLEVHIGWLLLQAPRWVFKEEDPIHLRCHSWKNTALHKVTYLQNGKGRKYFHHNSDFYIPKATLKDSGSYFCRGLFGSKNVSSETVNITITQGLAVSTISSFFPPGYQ
Assay: SPR (Biacore); He/Con_3a divided by He/Con_2b (FcγRIIIa against FcγRIIb)
Method in brief: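 SPR, 25 °C, HBS-EP+. Ab captured via immobilized antigen peptide (CM5 amine coupling or SA biotin); FcγR injected as analyte. Regen: 10 mM glycine-HCl pH 1.5.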

Binder | He_3a/2b (IIIa/IIb) [ratio]
B1 | 1.35
B2 | 1.45
B3 | 1.39
B4 | 1.28
B5 | 1.28
B6 | 1.72
B7 | 1.69
B8 | 1.29
B9 | 1.43
B10 | 1.26
B11 | 1.24
B12 | 1.39
B13 | 1.69
B14 | 1.53
B15 | 1.69
B16 | 1.51
B17 | 1.26
B18 | 1.33
B19 | 1.2
B20 | 1.43
B21 | 1.31
B22 | 1.37
B23 | 1.38
B24 | 1.76
B25 | 1.37
B26 | 1.22
B27 | 1.21
B28 | 1.52
B29 | 1.33

Target: T1, FcγRIIIa extracellular domain with …
Assay: SPR (Biacore), antibody captured on antigen peptide chip, FcγR as analyte; GpH7-A5/GpH7-B3/GpL16-k0 = 100

Binder | He/Con_3a (relative binding activity)
B1 | 143 % of control
B2 | 113 % of control
B3 | 56.4 % of control
B4 | 95.1 % of control
B5 | 99.3 % of control
B6 | 115 % of control
B7 | 160 % of control
B8 | 105 % of control
B9 | 105 % of control
B10 | 82.5 % of control
B11 | 104 % of control
B12 | 85.6 % of control
B13 | 81.6 % of control
B14 | 85.4 % of control
B15 | 109 % of control
B16 | 86.1 % of control
B17 | 81.6 % of control
B18 | 88.5 % of control
B19 | 76.5 % of control
B20 | 90.3 % of control
B21 | 135 % of control
B22 | 73.9 % of control
B23 | 66.7 % of control
B24 | 29.6 % of control
B25 | 96.4 % of control
B26 | 76.4 % of control
B27 | 83 % of control
B28 | 26.7 % of control
B29 | 104 % of control

Target: T2, FcγRIIb extracellular domain with C-terminal His tag (human, UniProt P31994 43-217)
T2 construct: extracellular domain; Soluble receptor expressed in FreeStyle293 cells, used as analyte in Biacore; also called FcgRIIb; 2b
T2 sequence (looked up): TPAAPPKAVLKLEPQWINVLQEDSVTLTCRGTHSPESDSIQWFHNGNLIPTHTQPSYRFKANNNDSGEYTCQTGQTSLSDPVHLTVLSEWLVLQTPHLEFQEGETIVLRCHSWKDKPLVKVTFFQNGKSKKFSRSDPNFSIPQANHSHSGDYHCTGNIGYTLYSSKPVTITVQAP
Assay: as above

Binder | He/Con_2b (relative binding activity)
B1 | 106 % of control
B2 | 77.9 % of control
B3 | 40.5 % of control
B4 | 74.5 % of control
B5 | 77.4 % of control
B6 | 66.8 % of control
B7 | 94.8 % of control
B8 | 81.1 % of control
B9 | 73.6 % of control
B10 | 65.4 % of control
B11 | 83.5 % of control
B12 | 61.4 % of control
B13 | 48.4 % of control
B14 | 55.6 % of control
B15 | 64.5 % of control
B16 | 56.9 % of control
B17 | 64.9 % of control
B18 | 66.8 % of control
B19 | 63.5 % of control
B20 | 63.1 % of control
B21 | 103 % of control
B22 | 53.9 % of control
B23 | 48.3 % of control
B24 | 16.9 % of control
B25 | 70.6 % of control
B26 | 62.7 % of control
B27 | 68.6 % of control
B28 | 17.6 % of control
B29 | 78.3 % of control
